From PMC10666288, “Unveiling the Catalytic Mechanism of a Processive Metalloaminopeptidase” (Biochemistry, 2023) come the findings set out here.

Data set [1] deals with the molecule itself. Briefly: crystal structure; uncleaved PaPepA, sitting drop, 20 °C, PEG 3350 and ammonium nitrate; three crystal forms: apo, with MnCl2, with bestatin and MnCl2.
Data set [2] deals with the molecule itself. As to the kind of experiment: dynamic light scattering; PaPepA in solution; conditions not shown (Figure S14).

What is called stoichiometry N is a count of units in the complex or per binding partner.

B1: PepA from P. aeruginosa strain PA14 (PaPepA), uncleaved His6-tagged protein used for crystallography (enzyme, Pseudomonas aeruginosa strain PA14)
chain: MEFLVKSVRPETLKTATLVLAVGEGRKLGASAKAVDDATGGAISAVLKRGDLAGKVGQTLLLQSLPNLKAERVLLVGAGKERELGDRQYRKLASAVLSTLKGLAGADAALALGDLAVKGRGAHAKARLLVETLADGLYVFDRYKSQKAEPLKLKKLTLLADKADSAAVEQGSKEAQAIANGMALTRDLGNLPPNVCHPTFLGEQAKGLAKEFKSLKVEVLDEKKLRELGMGSFLAVAQGSDQPPRLIILQYNGAKKDQAPHVLVGKGITFDTGGISLKPGLGMDEMKFDMCGAASVFGTFRAVLELQLPINLVGLLACAENMPSGGATRPGDIVTTMSGQTVEILNTDAEGRLVLCDALTYAERFKPQSVIDIATLTGACIVALGSNTSGLMGNNEALVRQLLKAGEFADDRAWQLPLFDEYQEQLDSPFADIANIGGPKAGTITAGCFLSRFAKKYHWAHLDIAGTAWISGGKDKGATGRPVPLLTQYLLERAK
notes: Leucine aminopeptidase PepA, Pseudomonas aeruginosa strain PA14, PA14_14470, UniProt Q02RY8; also called leucine aminopeptidase from Pseudomonas aeruginosa; uncleaved PaPepA; source: E. coli BL21(DE3), purified (HisTrap FF nickel column, dialysed; not TEV-cleaved); not shown: His6 (followed by a linker and a TEV protease cleavage site), N-terminal, kept
Regarding B1, the “stoichiometry N” value in data set [1] came to 6.

B2: PepA from P. aeruginosa strain PA14 (PaPepA), protein used for dynamic light scattering (enzyme, Pseudomonas aeruginosa strain PA14)
chain: B1 chain
notes: Leucine aminopeptidase PepA, Pseudomonas aeruginosa strain PA14, PA14_14470, UniProt Q02RY8; probably the cleaved one; also called leucine aminopeptidase from Pseudomonas aeruginosa; source: E. coli BL21(DE3), purified (HisTrap FF nickel column)
For the protein B2, in data set [2], the “stoichiometry N” value is 6.
